Assay results published in article PMC7044329.

Biological target: transcriptional activation domain of ATF6α
Assay: affinity purification with mass spectrometry; Mediator enriched from wild-type and MED26 hypomorphic HEK293T cells by binding to the ATF6α transcriptional activation domain (glutathione affinity); semi-quantitative MudPIT

- level in Mediator relative to wild-type MED26: 30 to 50%
Substance: mutant MED26 that lacks the NTD (from UniProt O95402 1-600) (natural protein)
